Measurements reported in a protein production outcome set (Wang et al. 2014).

Assay: label from the status in PepcDB records
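Note: failed if final PepcDB status was selected cloned or expressed and not failed if soluble or beyond.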

Sequence | protein production
NIDLDVQNMAQNALKFGYDEIVKRDKDANLSTLNGAMVVVNHQSGDVLALVGGVDYEKSNYNRATQSMRQPGSSFKPFVYQVAINLGYSPMSEIADISRIFEGGAGNNEDWKPKNEGGKFLGLITLKEALTRSRNLATINLALDMGLDVLYSKLMEFGFKDIPPNLSIVLGSFGISPLEYSKFYTMFGNYGTIKDPQIIRQVQDKTGKTIMEFNSNERKVSDEAQSFLVLDMMRNVVEKGTGRNARVKDIEIAGKTGTTNKSVDAWFCGLTPEIEAIIWYGNDNNKPMRYTEGGARTAAPVFREFLTQYIEKFPDTTR | failed
MNTKALIGILMFLLLITWSSKGFAKTAEATVTVNIRNSPSTSSKVLGVFPKGFKAQVLSSTGGWVKISFDGVVGYVKSDYIKLTKDSSTSNAVKSSTNTRQVVSQMPMATVLKDNARVRSNMSTSSKILKTLKKGSKVYVLARERNGWIKVKTLDGTVGYMAYYLLKMSTSHTTKISSRGGYDREAQVAYNGSLADRILGFAKNLLGIRYRYGGSSPSTGFDCSGFVQYVFRNFGISLERTAADMAATDGVRISYNELRPGDLVFFDTDGGRNYINHVGIYLGGGKYIHASSARGCVTISDLTSKYGTSFMMAKRVIR | failed
MQICDSYNQKNSLFNAMNRFIGAVNNMDQTVMVPSLLRDVPLDQEEEKEVTSFQDGDMYGSYVLLKSIRNDIEWGVLQAEERRKEKHGVTTTSLEVSRIEPNDKDLEKLFHYHLSGLHTVLAKLTRKANTLTNRYKQEIGIGGCGN | failed
MSILLSKTLRELIFWMAWIIIPLIMEIIPAFGGFFILVKKSFNSNREGFIGTLPEITLIIPIYNSEATLKGCIESIYNCSYPTRLIDLILVNNMSSDDSFQVFSQCQKEFCGLSMRYMNSKQGKSKALNMALFNSAGKYIIHIDSDGKLHYDAIKNMIVRFEKNPNIHCMTGAILSDIEGIEKTHKRFLKLIRRCEFFEYAQAFLAGRNFESEINSIYTLSGAFSAFRKSTILKTQLYNSKTVCEDTHITFQVRRLLKKKVYLCENSIFFVDPIENLNKLYTQRQRWQRGEIEVSHMFFKNKMNSPLGFFHNFMIRVVMYDHTFAFPRMIWYFAIIFLFFMNYPVKLVVGSLVIIYMLYVLSTFLFYLNVRIYLKEYKSIREYYKARWGYIFLMPIYNFVVFWIRFAGIINSIKIKSKWKTLTLNDEWTAFLKVIQSDFRMIGKGINKIRRLVND | failed
MAVGFFAQVIDGALGMAYGITATTFLLSAGATPAAASASVHIAEVFTTGFSGISHVKLGNVNKSLFLRLLLPGMIGAVLGAVLITRFDGHQLKPFISAYLLLMGLYILSKAYRHVIKRRAPRHVAKLALFGGFVDAAGGGWGPVVTSSLIGSGSDPRTTIGSVNFAEFFLTIASATSFILLAGQPDTWKMVAGLVFGGLFAAPFAALLCKKLSPRTLLVIVGTLITLISAYNIYIGLR | failed
MFKSVQQRTIQNGQVIPFYHSTNELAHIQNILQSQTPLVSLKEINKFRQLIARASVGEYFLIQSGDCAENFYECDKDTTHAKLDFIRHLATFFHQKTGCSVIQVGRIARQYAKPRSNQYEICQNKRIYSYFGGMINQSQETQRRPNPWRILLSYNCSASIYRKINQWNRGINPEQKIYTSQEAFLFNYEQSLTRWDERTGLYYNLSTHFPWLGKRTVSSLQHINHLKKIANPIAVKIGPDTPIKNLVKVINELDPSYIPGRITLIPELGAQNVYHILPQLIDAVKRTDRTVLWSCDPMHGNTETLSSGIKIRKLSNIVEEIKNSFFIHRKMGSQLNAIHLEATHQNVTECMDYKSSHCESISDLKKNYKNLLDPRLNYAQTLHVIQCVAKYYANS | failed
MSDAETLSVYAAKADDYANLTDEAAARDPSLVAFIAAMPKRGRVLDLGCGPGGSAAAMARAGLVVDAFDPVPEMVALAGRHAGVSARKAGFEDVTQVDHYDGIWANFSLLHAPRDDMPKHLARIATALKPGGRFHIGVKTGTGSKRDTLGRRYTYYSESELVDLLAAAGLTVFDRREGCDTGLDGVDAHWIVLAAHA | failed
MKSYVLGEFGAEAALLDAARTLRARGGATLDLHSPYPLHGAEEALGLRKSTVPLVALVAGITGAVSGYLLQWYTVGYAWPLNVGNRPPHSAPAFIPVTFELGVLFSALAIFVGLLAVYFGFPRVHHPVFEVEAFRSASIDGLWLSAEVEAGDADAVAAELRRLGARLVSVVPEGK | failed
MEYTPFSLILDVGWISGLMIIGNIMRRKIPFFQTLLIPSSITAGIIGMILGPKVLGLIGWSDHLSTYTTVLIAIVFASMPYSMKFDRGVRTGMKTMWAYSTAMFVGQWGLFILLGLFLFQPVWGTDEWFGMMLPVGFVGGFGTAAAVGTALESSGAEAAMSLGFTSATVGTFAAIVGGIIFTTWGIKKGKTAAMPAQLPWDLRSGYIDKLSDRPSIGKASTNPSAIEPLALHTGIILLTVAVAYSINQWLGSMFPTVQIPLFAMSFVVGIVGMGIMRLLKKPEYLDRDTVNSVSGAATDYLIAFGIASIAPAAIADYWVPLVVLFVLGTIYCCFFFFWVAPRFFGEKWLERAIFGWGWATAAVATGIALLKIVDPKLKSGALNEYGVAYIGFAPFEIGMTIIAPIAVLAGFTMGLGWASLIVAIVIFGLAWGLKWLPERGHVRGEGKPQ | failed
MAVTPVLACYRTCDAAIGGITAWQVTTGPDGPRTNVVGSCPLGDASWVTPLYHLVVVLCERDGTLVVVHPGREFQVVGTVQLKGQWPCHGAVDPTGRLMAVADYASGQVEFVDLSDPTRPTVRNVLDLGQGCVFPRPVADRQEGPHAHQVTWLDRAHLAVTDLGADRINVVRWSEAGPEIIGSLKTPAGCGPRHLTLTEDGRKQILTVGGALSGTVSTWSRPTGHDMWAREWRFVQETASSRWSHTGSQERRSACTPASPSAIVTTPDGRHFVANRSVGSIGILGGRFGRINLIDEFDTTGANPRDITVTTQNGTRVWVALPEEGQIAIHLRDEDTGGWQVETTIDQPGAMRVIVGPTTG | failed
MAEKPKLHYFNARGRMESTRWLLAAAGVEFEEKFIKSAEDLDKLRNDGYLMFQQVPMVEIDGMKLVQTRAVLNYIASKYNLYGKDIKERALIDMYIEGIADLGEMILLLPVCPPEEKDAKLALIKEKIKNRYFPAFEKVLKSHGQDYLVGNKLSRADIHLVELLYYVEELDSSLISSFPLLKALKTRISNLPTVKKFLQPGSPRKPPMDEKSLEEARKIFRF | not failed
SAFQAAAARLGAPVSHDFCAISLSDLMTPWEVIEKRIEAAASADFVTAVYNPRSRDRYWQIHRFRELFLRHRSPSTPVGIVRNVTRKDESVVLTTLGEFDPDSLDMFTMMLVGNSTTF | not failed
MGSSHHHHHHSSGRENLYFQGEPPPSVRREFPLKVRLSTGKDVRLSASLPDTVGQLKRQLHAQEGIEPSWQRWFFSGKLLTDRTRLQETKIQKDFVIQVIIN | not failed
MMMLQGSKSGSEMEVTWEDQQNINIFSRLNNRVHDLDDDIKSAKEKCENLEDAGNELILADEEMVRFQIGEVFAHVPRDDVETKIEEMKEATCKSLEKLEQEKESIVTQMAALKKVLYAKFKDSINLEED | failed
IPKHPDSEAVAPDPFNPAATQLLDDTSWVLSAWKQADGTARAVPSADQGAPITLTLSTSTGQRHASGFSGCNRYMGSYALKDGKLSFGTLGGTRMACMTPGGQIEGAYLNALTHIDRTGVQMRAPQQMQLVLDNGDTLTFDRSTR | not failed
MISDNFFTEHMTIVIAVAIVLLLIIILLTCWKRVPADKALVITGLKKRVLTGKGGIQVPFLETSCIISLEAVSMTTDITEAPSKQGIFVDIAGTAVVKVDNNPEKVLIAVEQFCSGNADRTTQNIKTVVEQILEGKLRGIVSTLTVEQINEDRVAFENSIEDSITRELDNMGLRLLSYTVLKIATQGGYLENRAIPQIAQSKADADIASAERARDTEVKTAAAVREGQKAKLEAEAEIAQSDRDKTIRMEQYRAEQDKIKANADVSYKLQEIENNKIVADRNVELAKKEAQVVEEQLVASVKKPADAKKYETEVQAEANKIKSIKEAEARAQALKIEAQARADAKLLEAKAEAEAIRAQGEAEAEALKAKGIAEAEAKDRLAEAMEKYGEAAMMSMVVERLPEIMAQIAKPMEQIDKITVIDNGSGDGGSKVSKIVSDVAANGFEVLKDLTGADLGEVVRTIANKNSNNKPKTK | failed
MRMNILLAFKAEPDAGMLAEKEWQAAQGNSGPDVSLLRSLLGADEQAAAALLLAQRKNGTSMSLTALSMGDERALHWLRYLMALGFEDAVLLETAADLRFAPEFVARHIAEWQYQNPLELIITGCQSSEGQNGQTPFLLAEMLGWPCFTQVERFTLDAPFITLEQRTENGLRCCRVRLPAVIAVRQCGEVALPVPGMRQRMAAGKAEIIRKTVAAEMPAMQCLQLARAEQRRGATLIDGQTVAEKAQKLWQYYLCQRMQP | failed
SGAAAAEADRTLFVGNLETKVTEELLFELFHQAGPVIKVKIPKDKDGKPKQFAFVNFKHEVSVPYAMNLLNGIRLYGRPIKIQFRSGSSHAPQDVSLSYPQHHVGNSSPTSTSPSRYERTMDNMTSSAQIIQRSFSSPENFQRQAVMNSALRQMSYGGKFGSSPLDQSGFSPSVQSHSHSFNQSSSSQWRQGTPSSQRKVRMNSYPYLADRHYSREQRYTDHGSDHHYRGKRDDFFYEDRNHDDWSHDYDNRRDSSRDGKWRSSRH | not failed
MKHVHGNGLVLGAAAFVFLAAQPVSAQTTQITEVKLNPGNGGLSVVLKTSAGSRPQVFTTKRGKALVADIINTQLRLPQGNNFRQDKPAAGIASVEVVQLDANSIRVIVTGDSDAPTSQPVIRQQDGITLSLTPSTGTTASAPVTPRPPVSTTPPASTPAQTGVVPNVLVPNPQVTIDGKPAQPAGPGQPLSQAPPFLPRAVAPPVGDIAISATDASPSTIDLGTQERVPRLVLRDAPVREVLSLLARAANLNLAYISDGVGGTPAAGGQGISQTISLDIENEPVQDVFNYVLRLSGLEANRSNRTIFVGPKLPNSTRDVVMRNLRLNQVNVGVALNFLVGLGAETAVSRERQVTNVNAVPVGTGVAPITQTQTTTETRVETQRINFQDSNPLLRGLQALGDERTNSLTLIGPPKLVEMAMNQLTQLDIRRRQVVVNVKIIDVNLSNTQDNNASLSFGIGNNYFSSDGGAASLNIGGLNPPSAGNVRNSLNPTVTTNPYSSGNTFLDLTQSVGPVPDTGVDTRNITINNPGGGSITETQGQDLNFVQRRAGISGDPFETGITAVTQGTPNIIRRTTTTDPTTGAVTETTTVTEGTRGSITAALPSLFQYPKRLLANLQAQVTNGNAKILTDPTLIVQEGQTANVKLTQEVVGNITSETTRGDGASTQTVTAEKTDVGLTLAVKIDRIDDNGFVSLSVAPVVKAPQSSAVINVSGNSQTIFLVSERSLNSGMIRLRDGQTLILSGIIQDQDRTSVSKIPILGDIPLIGSLFRKTNRTNERREVIVLLTPQVMDDSQNSSYGYNYSPSPEVRQMLERRGLNTPRR | failed
MEDERIKLLFKEKALEILMTIYYESLGGNDVYIQYIASKVNSPHSYVWLIIKKFEEAKMVECELEGRTKIIRLTDKGQKIAQQIKSIIDIMENDT | not failed
MFLAGAFIAVGSLYAQSSDAEWQAGVAKLKETIQTNPAQANEEAEQLIKGKNKKNVELLVAIGEVYLKAGKLPEAQEYAALAKKVNGKSALASVLEGDIAFEQKNAGLASQKYEEAIYFDPSCTEAYLRYADIYKSANAALAIEKLEQLKAQEPSNTAVDKKLAEIYYLKNDFSKAAEAYSRFAMGPTATEEDLVKYAFALFLNHDFEKSLEVANMGLKKNARHAAFNRLAMYNYTDLKRFDEAIKAADAFFTESDKADYSYLDYMYYGHLLEALKKYDEAVGQYEKAIQLDPTKTDLYKNISSAYEQKNDYKKAISAYQKYYTSLDKEHQTPDLQFQFGRLYYGAGTQTDSLTINAEERKQALMAADSVFHSIAEAAPDSYLGNFWRARANSALDPETTLGLAKPFYEEVATLLESKNDPHYNSALIECYSYLGYYYLLAIENPALKAEAMANKEKSKEYWSKILAIDSTNATAKRALDGIK | failed
MDVSFEFEHYQVRLIKSSDAVTIANYFMRNRHHLAPWEPKRSHAFFTPEGWKQRLLQLVELHKHNLAFYFVVVDKNEHKIIGTVSYSNITRFPFHAGHVGYSLDSEYQGKGIMRRAVNVTIDWMFKAQNLHRIMAAYIPRNEKSAKVLAALGFVKEGEAKKYLYINGAWEDHILTSKINDDWKPE | failed
